This is an account of results in patent US20260327578A1, “TRANSGLUTAMINASES AND USES THEREOF” (CURIE CO. INC., priority 2023, published 2026).

Data set [1] relates to E. coli. The data set can be described thus: Preservative efficacy in body lotion against E. coli. The format is cell-based. The following applies: 0.005% in combinations, phenoxyethanol 0.7% alone, 0.3% combined, caprylyl glycol 0.7% alone, 0.35% combined, sodium benzoate 0.5% + EDTA 0.5%, 2% 2:1 propanediol:hexanediol, 0.5% CHA solution. As to the method:
(§1) A vessel was filled with deionized water, placed under an overhead stirrer set to moderate mixing, and heated to 75-80° C. Glycerin was added to 2% and mixed until dissolved, followed by xanthan gum to 0.2%. At 75-80° C., cetearyl glucoside and cetearyl alcohol were added to 4% and 3%. Once both had melted fully, milk thistle seed oil was added and the batch was homogenized with a Silverson homogenizer with the standard emulsion screen until the batch had turned milky white. The batch was removed from heat and returned to propellor mixing with decreased speed to allow the emulsion to set up. At 40° C., pH was adjusted to pH 5.5-6.0 using citric acid or sodium hydroxide and split into several portions and allowed to finish cooling. Once cooled to room temperature, one portion of the body lotion was left unpreserved and the remaining portions were preserved with one or more substances selected from aseptilase, phenoxyethanol, caprylyl glycol, sodium benzoate, and EDTA. All samples were inoculated with E. coli (10^6 CFU/mL) and C. albicans (10^5 CFU/mL) and plated after 2 and 7 days.

Data set [2] concerns E. coli (ATCC 8739). The data set can be described thus: MIC determination against E. coli. The format is cell-based. As to the method:
(§2) E. coli (ATCC 8739) and C. albicans (ATCC 10231) were acquired from the American Type Culture Collection (ATCC) (Manassas, VA) and maintained as −80° C. frozen glycerol stocks.
(§3) The following day, the cell density of the saturated cultures was calculated using OD600 and cultures were diluted to 104 to 10^6 CFU/mL in sterile Mueller Hinton broth to generate the inoculum, and 100 μL of the inoculum was combined with 100 μL of serially diluted Tgase variant A3 (SEQ ID NO: 4) at a range of 0.0001-0.05 weight percent. Growth curves were measured by OD600 on a BioTek® Synergy Plate Reader. All test conditions were performed in triplicate. MIC was determined to be […] (0.005% w/v) against E. coli for the enzyme described in SEQ ID NO: 4 using OD600.

Data set [3] has as its system E. coli (ATCC 8739) / C. albicans (ATCC 10231). The data set can be described thus: MIC of permeabilizer co-dosants with and without Tgase variant. Format: cell-based. As to the method: as §2, §3
(§4) For MIC determination of yeast cultures, C. albicans (ATCC 10231) was grown overnight (24 hours) in Sabouraud Dextrose broth at 30° C. The following day, the cell density of the saturated cultures was calculated using OD600 and cultures were diluted to 104 to 10^6 CFU/mL in sterile Sabouraud Dextrose broth media to generate the inoculum, and 100 μL of the inoculum was combined with 100 μL of serially diluted Tgase variant at a range of 0.0001-0.05 weight percent. The cultures were grown overnight at 30° C. and growth curves were measured by OD600 on a BioTek® Synergy Plate Reader. All test conditions were performed in triplicate. MIC was determined to be […] (0.005% w/v) against C. albicans for the enzyme described in SEQ ID NO: 4 using OD600.
Aseptilase activities of Tgase variant A3 (SEQ ID NO: 4) in combination with each of the three permeabilizer co-dosants, polymyxin B, chlorhexidine, and a 10000:4000:1 mixture by weight of sodium hexametaphosphate, phytic acid and chlorhexidine, were tested. […] The experiments were performed as described in Example 5. The co-dosants were added into Tgase variant A3 (SEQ ID NO: 4) solutions at concentrations of 0.125 g/L, 0.05 g/L, and 350 mM, respectively. The results are shown in Table 12 with Tgase concentrations reported within the table at the best MIC.

The test system of data set [4] is C. albicans (ATCC 10231). The data set can be described thus: MIC determination against C. albicans. The format is cell-based. As to the method: as §2, §4
Data set [5] deals with C. albicans. The data set can be described thus: Preservative efficacy in body lotion against C. albicans. The note with it: 0.005% in combinations, phenoxyethanol 0.7% alone, 0.3% combined, caprylyl glycol 0.7% alone, 0.35% combined, sodium benzoate 0.5% + EDTA 0.5%, 2% 2:1 propanediol:hexanediol, 0.5% CHA solution. Format: cell-based. The method, then:
as §1

Data set [6] is described as follows: Thermal stability at 55 °C, specific activity by colorimetric hydroxamate assay. The format is biochemical. As to the method:
Tgase activity was measured herein using a colorimetric hydroxamate activity assay (Folk and Cole (1965) J Biol Chemistry 240 (7): 2951-2960). Briefly, the hydroxamate assay uses N-benzyloxycarbonyl-L-glutaminyl-glycine (ZQG) as a low molecular weight amine acceptor substrate and hydroxylamine as an amine donor. In the presence of catalytically active Tgase, the hydroxylamine is incorporated to form Z-glutamylhydroxamate-glycine, which develops a colored complex with iron (III), detectable at 525 nm after incubation at 37° C. for 5-200 minutes. The calibration was performed using L-glutamic acid gamma-monohydroxamate (Millipore® Sigma®) as a standard. One unit of Tgase was defined as the amount of enzyme that catalyzes formation of 1 μmol of the peptide derivative of gamma-glutamylhydroxylamine per minute. Activity of Tgase variants is depicted in Tables 2-4.
A commercially available wild-type Tgase (Ajinimoto®, Activa® TI formulation) formulated at 0.75-1.0% enzyme in maltodextrin was purchased from Amazon.com and dissolved in water at 20% w/v. The concentration of the mature Tgase in the solution was confirmed by high-performance liquid chromatography (HPLC) and the sample was further diluted to 0.1 g/L of enzyme. Following dilution, the enzyme was subjected to the hydroxamate assay as described in Example 4 to determine specific activity. The specific activity of the commercial wild-type Tgase compared to Tgase variant A3 (SEQ ID NO: 4), further comprising an N-terminal methionine, is shown in FIG. 1.
The thermal stability of Tgase variant A3 (SEQ ID NO: 4) compared to the commercial wild-type Tgase was evaluated by incubating the samples at 55° C. and testing the enzyme concentration and activity at various timepoints. Six timepoints were tested: 0, 30, 60, 120, 240, and 480 minutes.
The enzyme concentration was measured by HPLC. The samples were diluted 10-fold in 50 mM phosphate pH 7.4, 100 mM NaCl. The samples were tested by reverse phase using a Zorbax SB300-C8 column with 0.1% trifluoroacetic acid in water (MPA) and 0.08% trifluoroacetic acid in acetonitrile (MPB).
The activity was determined using the colorimetric activity assay described in Example 4A. The specific activity (U/mg) of the samples was calculated using the concentration of each sample as determined per Example 4D (results shown in Table 10).

The mark [7] stands for this setting: OD600, printed in brackets after the ppm value.

B1: A3: Tgase variant S2P Q50S Q74A K91H Q124L K151R K152R N282M G283A relative to SEQ ID NO: 2 (protein, UniProt P81453 77-407, looked up, variant S2P Q50S Q74A K91H Q124L K151R K152R N282M G283A)
Protein-glutamine …: DPDDRVTPPAEPLDRMPDPYRPSYGRAETVVNNYIRKWQQVYSHRDGRKSQMTEEQREWLSYGCVGVTWVNSGAYPTNRLAFASFDEDRFHNELKNGRPRSGETRAEFEGRVAKESFDEEKGFLRAREVASVMNRALENAHDESAYLDNLRRELANGNDALRNEDARSPFYSALRNTPSFKERNGGNHDPSRMKAVIYSKHFWSGQDRSSSADKRKYGDPDAFRPAPGTGLVDMSRDRNIPRSPTSPGEGFVNFDYGWFGAQTEADADKTVWTHGNHYHAPMASLGAMHVYESKFRNWSEGYSDFDRGAYVITFIPKSWNTAPDKVKQGWP
On to B1, for which the “Preservative efficacy against E. coli, log reduction” value in data set [1] (day 2, aseptilase 0.01% alone) amounted to 1.71 log reduction in CFU/mL; in data set [1] (day 7, aseptilase 0.01% alone), 3.45 log reduction in CFU/mL. Moreover, the MIC in data set [2] (OD600) came out at 200 ppm; in data set [2] (setting [7]), 0.005 % w/v; in data set [4] (OD600), 100 ppm; in data set [4] (setting [7]) it was 0.005 % w/v. The “Aseptilase activity in combination with permeabilizers” value in data set [3] (co-dosed with polymyxin B, chlorhexidine, or hexametaphosphate/phytic acid/chlorhexidine) is “further improved by co-dosing with cell membrane permeabilizers”. For the same molecule, the “concentration of Tgase at the best MIC” value in data set [3] (in combination with 10000:4000:1 hexametaphosphate, phytic acid and chlorhexidine) stood at 200 ppm; in data set [3] (in combination with Chlorhexidine) it was 200 ppm; in data set [3] (in combination with Polymyxin B), 12.5 ppm. Further, the “Preservative efficacy against C. albicans, log reduction” value in data set [5] (day 2, aseptilase 0.01% alone) is listed as −1.08 log reduction in CFU/mL; in data set [5] (day 7, aseptilase 0.01% alone), −1.19 log reduction in CFU/mL. For the same molecule, the Specific activity in data set [6] (timepoint 0 min) was found to be 46.0 U/mg; in data set [6] (timepoint 30 min), 44.4 U/mg; in data set [6] (timepoint 60 min), 43.3 U/mg; in data set [6] (timepoint 120 min) it was 40.5 U/mg; in data set [6] (timepoint 240 min), 38.9 U/mg; in data set [6] (timepoint 480 min) it was 32.1 U/mg. Besides, the “portion remaining soluble during the heat treatment” value in data set [6] (up to 480 min, compared to wild-type Tgase, HPLC) is “greater portion”.
